Holding throughout (assay): SPOT array
Experiment [1] concerns the target T1, Boi2 SH3 (BOI2_YEAST), P39969.
T1 chain: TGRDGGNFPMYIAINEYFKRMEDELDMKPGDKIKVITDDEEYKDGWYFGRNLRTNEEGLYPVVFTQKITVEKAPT

In experiment [2] the target is T2, Yhr016c SH3 (YSC84_YEAST), P32793.
T2 chain: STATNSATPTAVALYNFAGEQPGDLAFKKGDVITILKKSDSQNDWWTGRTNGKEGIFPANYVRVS

The target in experiment [3] is T3, Rvs167 SH3 (RV167_YEAST), P39743.
T3 chain: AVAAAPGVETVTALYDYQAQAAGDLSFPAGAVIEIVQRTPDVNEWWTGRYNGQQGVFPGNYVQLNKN

In experiment [4] the target is T4, Boi1 SH3 (BOI1_YEAST), P38041.
T4 chain: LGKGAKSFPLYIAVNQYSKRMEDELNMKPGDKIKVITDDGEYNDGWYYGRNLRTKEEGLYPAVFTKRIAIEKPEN

Experiment [5] deals with T5, Myo5 SH3 (MYO5_YEAST), Q04439.
T5 chain: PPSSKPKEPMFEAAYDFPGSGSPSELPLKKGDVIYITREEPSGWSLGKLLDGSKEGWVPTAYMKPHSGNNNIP

The target in experiment [6] is Sho1 SH3 (SHO1_YEAST), P40073.
Chain of Sho1 SH3 (SHO1_YEAST), P40073 (P40073 295-366): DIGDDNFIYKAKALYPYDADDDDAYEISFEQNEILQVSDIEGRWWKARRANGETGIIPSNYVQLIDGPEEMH
Experiment [7] concerns the target T6, Yfr024 SH3 (LSB3_YEAST), P43603.
T6 chain: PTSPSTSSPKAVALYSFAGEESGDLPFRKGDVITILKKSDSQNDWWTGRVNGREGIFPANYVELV

Experimental findings from paper PMC314469, “Protein Interaction Networks by Proteome Peptide Scanning” (PLoS Biology, 2004) are described below.

B1: YNL297C 1291-1304 (peptide)
chain: KITKKLGPKLPKAS
Regarding B1, the normalised SPOT signal, Boehringer light units (BLU); mean over the file's lines of this peptide stood at 21 in experiment [1]; 43.5 in experiment [2]; 187 in experiment [3]; 198 in experiment [4]; 681 in experiment [5]; 47.2 in experiment [6]. The molecule also registered a normalised SPOT signal, Boehringer light units (BLU); mean over the file's lines of this peptide in experiment [7] of 490.

B2: YNL155W 157-170 (peptide)
chain: KKIAKGDPKIPMQN
In the case of B2, the normalised SPOT signal, Boehringer light units (BLU); mean over the file's lines of this peptide in experiment [1] is 1; in experiment [2] it was 89.5; in experiment [3] it was 147; in experiment [4] it was 779; in experiment [5], 720; in experiment [6], 103. The normalised SPOT signal, Boehringer light units (BLU); mean over the file's lines of this peptide in experiment [7] is 190.

B3: YDR464W 649-662 (peptide)
chain: KIVERGPPYPPDLR
With B3, the normalised SPOT signal, Boehringer light units (BLU); mean over the file's lines of this peptide is 4.7 in experiment [1]; 20.3 in experiment [2]; 102 in experiment [3]; 74.9 in experiment [4]; 138 in experiment [5]; 14.8 in experiment [6]. In addition, the normalised SPOT signal, Boehringer light units (BLU); mean over the file's lines of this peptide in experiment [7] was determined as 93.1.

B4: YJL042W 327-340 (peptide)
chain: KFDAKGRPIPPHPD
Consider B4, for which the normalised SPOT signal, Boehringer light units (BLU); mean over the file's lines of this peptide in experiment [1] came out at 3.5; in experiment [2], 39.4; in experiment [3], 58.6; in experiment [4], 460; in experiment [5], 53.5; in experiment [6], 27.1. Besides, the normalised SPOT signal, Boehringer light units (BLU); mean over the file's lines of this peptide in experiment [7] came out at 224.

B5: YDL220C 702-715 (peptide)
chain: KHEPKKSPTTPALA
For the molecule B5, the normalised SPOT signal, Boehringer light units (BLU); mean over the file's lines of this peptide in experiment [1] is 36.2; in experiment [2] it was 26.8; in experiment [3], 30.5; in experiment [4], 442; in experiment [5], 726; in experiment [6], 21.3. Moreover, the normalised SPOT signal, Boehringer light units (BLU); mean over the file's lines of this peptide in experiment [7] was determined as 19.7.

B6: YMR190C 828-841 (peptide)
chain: KFFKREYPDIPMIA
Consider B6, for which the normalised SPOT signal, Boehringer light units (BLU); mean over the file's lines of this peptide stood at 20.2 in experiment [1]; 42.3 in experiment [2]; 127 in experiment [3]; 201 in experiment [4]; 155 in experiment [5]; 359 in experiment [6]. This molecule had a normalised SPOT signal, Boehringer light units (BLU); mean over the file's lines of this peptide in experiment [7] of 120.

B7: YNL265C 154-167 (peptide)
chain: KIIKKSSPSVPKEE
With B7, the normalised SPOT signal, Boehringer light units (BLU); mean over the file's lines of this peptide in experiment [1] turned out to be 0.6; in experiment [2], 12.1; in experiment [3], 176; in experiment [4] it was 389; in experiment [5] it was 242; in experiment [6], 1230. The normalised SPOT signal, Boehringer light units (BLU); mean over the file's lines of this peptide in experiment [7] was 191.

B8: YFL004W 130-143 (peptide)
chain: KKHDKLYPKYPSVK
On to B8, for which the normalised SPOT signal, Boehringer light units (BLU); mean over the file's lines of this peptide was determined as 16.5 in experiment [1]; 37.6 in experiment [2]; 61.3 in experiment [3]; 435 in experiment [4]; 340 in experiment [5]; 114 in experiment [6]. This molecule also registered a normalised SPOT signal, Boehringer light units (BLU); mean over the file's lines of this peptide in experiment [7] of 184.

B9: YCR068W 315-328 (peptide)
chain: KGVLKEYPMRPYGS
As to B9, the normalised SPOT signal, Boehringer light units (BLU); mean over the file's lines of this peptide in experiment [1] was 14; in experiment [2], 134; in experiment [3] it was 38.3; in experiment [4], 251; in experiment [5], 117; in experiment [6] it was 78.4. This molecule also returned a normalised SPOT signal, Boehringer light units (BLU); mean over the file's lines of this peptide in experiment [7] of 1160.

B10: YPL019C 129-142 (peptide)
chain: KKHDKLHPNYPSVK
Regarding B10, the normalised SPOT signal, Boehringer light units (BLU); mean over the file's lines of this peptide in experiment [1] was 33.3; in experiment [2], 12.6; in experiment [3] it was 415; in experiment [4], 674; in experiment [5], 407; in experiment [6], 72.4. Moreover, the normalised SPOT signal, Boehringer light units (BLU); mean over the file's lines of this peptide in experiment [7] amounted to 164.

B11: YOR019W 147-160 (peptide)
chain: KIVRRDYPSTPVIV
B11: the normalised SPOT signal, Boehringer light units (BLU); mean over the file's lines of this peptide worked out at 3.2 in experiment [1]; 17.5 in experiment [2]; 206 in experiment [3]; 235 in experiment [4]; 366 in experiment [5]; 33.5 in experiment [6]. In experiment [7], this molecule gave a normalised SPOT signal, Boehringer light units (BLU); mean over the file's lines of this peptide of 267.
